Experimental data reported in the Human Domainome abundance scans (Beltran et al. 2025).
± gives the uncertainty stated by the source.

Assay: abundance fitness (aPCA) (normalised: wild type 0, dead -1); higher = more abundant; growth selection in yeast, the domain comes from the species named
Conditions: Homo sapiens

Substance | abundance fitness
Scaffold attachment factor B2 L30F, Q14151 | -0.3 ± 0.12
Scaffold attachment factor B2 L30G, Q14151 | -0.281 ± 0.084
Scaffold attachment factor B2 L30I, Q14151 | 0.038 ± 0.14
Scaffold attachment factor B2 L30K, Q14151 | -0.461 ± 0.12
Scaffold attachment factor B2 L30M, Q14151 | -0.036 ± 0.12
Scaffold attachment factor B2 L30P, Q14151 | -0.451 ± 0.14
Scaffold attachment factor B2 L30Q, Q14151 | -0.284 ± 0.14
Scaffold attachment factor B2 L30R, Q14151 | -0.272 ± 0.072
Scaffold attachment factor B2 L30S, Q14151 | -0.233 ± 0.095
Scaffold attachment factor B2 L30T, Q14151 | -0.345 ± 0.14
Scaffold attachment factor B2 L30W, Q14151 | -0.771 ± 0.076
Scaffold attachment factor B2 L30Y, Q14151 | -0.086 ± 0.12
Scaffold attachment factor B2 L33C, Q14151 | -0.758 ± 0.12
Scaffold attachment factor B2 L33D, Q14151 | -0.307 ± 0.12
Scaffold attachment factor B2 L33E, Q14151 | -0.072 ± 0.093
Scaffold attachment factor B2 L33F, Q14151 | -0.106 ± 0.23
Scaffold attachment factor B2 L33G, Q14151 | -0.237 ± 0.076
Scaffold attachment factor B2 L33H, Q14151 | -0.46 ± 0.25
Scaffold attachment factor B2 L33K, Q14151 | -0.319 ± 0.11
Scaffold attachment factor B2 L33M, Q14151 | 0.182 ± 0.11
Scaffold attachment factor B2 L33N, Q14151 | -0.301 ± 0.3
Scaffold attachment factor B2 L33Q, Q14151 | -0.24 ± 0.096
Scaffold attachment factor B2 L33R, Q14151 | -0.331 ± 0.075
Scaffold attachment factor B2 L33S, Q14151 | -0.138 ± 0.097
Scaffold attachment factor B2 L33T, Q14151 | -0.268 ± 0.1
Scaffold attachment factor B2 L33V, Q14151 | -0.204 ± 0.072
Scaffold attachment factor B2 L33W, Q14151 | -0.103 ± 0.096

Substance | abundance fitness
Scaffold attachment factor B2 L33Y, Q14151 | -0.33 ± 0.32
Scaffold attachment factor B2 L38A, Q14151 | -0.316 ± 0.077
Scaffold attachment factor B2 L38C, Q14151 | -0.532 ± 0.1
Scaffold attachment factor B2 L38D, Q14151 | -0.746 ± 0.11
Scaffold attachment factor B2 L38F, Q14151 | -0.455 ± 0.2
Scaffold attachment factor B2 L38G, Q14151 | -0.664 ± 0.07
Scaffold attachment factor B2 L38H, Q14151 | -0.578 ± 0.13
Scaffold attachment factor B2 L38I, Q14151 | -0.141 ± 0.13
Scaffold attachment factor B2 L38K, Q14151 | -0.694 ± 0.12
Scaffold attachment factor B2 L38M, Q14151 | -0.139 ± 0.12
Scaffold attachment factor B2 L38N, Q14151 | -0.509 ± 0.17
Scaffold attachment factor B2 L38P, Q14151 | -0.637 ± 0.1
Scaffold attachment factor B2 L38R, Q14151 | -0.787 ± 0.076
Scaffold attachment factor B2 L38S, Q14151 | -0.506 ± 0.094
Scaffold attachment factor B2 L38T, Q14151 | -0.544 ± 0.099
Scaffold attachment factor B2 L38V, Q14151 | -0.863 ± 0.076
Scaffold attachment factor B2 L38W, Q14151 | -0.791 ± 0.092
Scaffold attachment factor B2 L38Y, Q14151 | -0.612 ± 0.15
Scaffold attachment factor B2 L42A, Q14151 | -0.325 ± 0.085
Scaffold attachment factor B2 L42C, Q14151 | -0.181 ± 0.11
Scaffold attachment factor B2 L42E, Q14151 | -0.381 ± 0.084
Scaffold attachment factor B2 L42F, Q14151 | -0.994 ± 0.16
Scaffold attachment factor B2 L42G, Q14151 | -0.439 ± 0.07
Scaffold attachment factor B2 L42M, Q14151 | -0.505 ± 0.16
Scaffold attachment factor B2 L42N, Q14151 | -0.606 ± 0.12
Scaffold attachment factor B2 L42P, Q14151 | -0.358 ± 0.12
Scaffold attachment factor B2 L42Q, Q14151 | -0.827 ± 0.29

Substance | abundance fitness
Scaffold attachment factor B2 L42R, Q14151 | -0.668 ± 0.077
Scaffold attachment factor B2 L42S, Q14151 | -0.697 ± 0.089
Scaffold attachment factor B2 L42T, Q14151 | -0.44 ± 0.12
Scaffold attachment factor B2 L42W, Q14151 | -1.1 ± 0.083
Scaffold attachment factor B2 L47A, Q14151 | -0.393 ± 0.079
Scaffold attachment factor B2 L47C, Q14151 | -0.339 ± 0.096
Scaffold attachment factor B2 L47D, Q14151 | -0.491 ± 0.11
Scaffold attachment factor B2 L47E, Q14151 | -0.394 ± 0.098
Scaffold attachment factor B2 L47G, Q14151 | -0.616 ± 0.068
Scaffold attachment factor B2 L47H, Q14151 | -0.789 ± 0.25
Scaffold attachment factor B2 L47I, Q14151 | -0.534 ± 0.19
Scaffold attachment factor B2 L47K, Q14151 | -0.246 ± 0.11
Scaffold attachment factor B2 L47M, Q14151 | -0.265 ± 0.13
Scaffold attachment factor B2 L47N, Q14151 | -0.877 ± 0.23
Scaffold attachment factor B2 L47P, Q14151 | -0.194 ± 0.45
Scaffold attachment factor B2 L47Q, Q14151 | -0.287 ± 0.12
Scaffold attachment factor B2 L47R, Q14151 | -0.524 ± 0.076
Scaffold attachment factor B2 L47S, Q14151 | -0.632 ± 0.093
Scaffold attachment factor B2 L47T, Q14151 | -0.409 ± 0.13
Scaffold attachment factor B2 L47V, Q14151 | -0.622 ± 0.083
Scaffold attachment factor B2 L47W, Q14151 | -0.696 ± 0.11
Scaffold attachment factor B2 L47Y, Q14151 | -0.714 ± 0.1
Scaffold attachment factor B2 L56A, Q14151 | -0.374 ± 0.091
Scaffold attachment factor B2 L56D, Q14151 | -0.349 ± 0.13
Scaffold attachment factor B2 L56F, Q14151 | -0.816 ± 0.12
